Results as given in patent US12098176B2, “Keratin BD-4, preparation method, and pharmaceutical composition and use thereof” (Institute of Materia Medica, Chinese Academy of Medical …, priority 2019, dated 2024).

What was measured:
[1] = tested on: acetic acid writhing of ICR mice; assay: Acetic acid writhing test in ICR mice; format: in vivo, mouse; conditions: for Number of twists / Writhing latency: 0.6% acetic acid i.p., within 15 minutes
Method: Experimental example 7 The pharmacodynamic test of protein BD-4 (Example 4 protein) on acetic acid writhing in ICR mice. Animals: male ICR mice; Drugs and reagents: aspirin, physiological saline, glacial acetic acid, protein BD-4. Experiment Grouping:
One day after the experimental animals adapt to the environment, Aspirin 300 mg/kg, protein BD-4 50 mg/kg, 200 mg/kg were given orally one hour in advance, and the administration volume was 10 ml/kg; Then, 0.6% acetic acid solution was injected into the abdominal cavity, and the latency period (seconds) and frequency of writhing in the animal was observed within 15 minutes.
Calculate the mean and standard error of the data in each group. Compared with the model group by TTEST, P<0.05 was considered as statistically different.
0.6% acetic acid solution was injected into the abdominal cavity of mice, which caused deep and large area and long-term painful stimulation, causing the mice to writhe (the abdomen was contracted into an “S” shape, the trunk and hind legs were stretched, the buttocks were raised and the hips Row). The incubation time and the number of times the mice began to writhe were used as the pain response index to determine whether the test sample had analgesic effect. […] Compared with the model group, P<0.05, which is statistically significant.

[2] = tested on: PLO-induced epilepsy in mice; assay: Pilocarpine (PLO) induced convulsive epilepsy in mice; format: in vivo, mouse; conditions: for Grade IV seizure rate / mortality rate: 10 mice; for Grade IV seizure rate / mortality rate / Number of deaths / Number of Grade IV cases: PLO 225 mg/kg i.p.; for Number of deaths / Number of Grade IV cases: of 10 mice; for Number of Grade IV cases: 30 min observation; for Level II onset incubation period / Level III onset incubation period / Level IV onset incubation period: mean ± SEM; for Level IV onset incubation period: no grade IV attack recorded as 1800 s
Method: Experimental example 3 The pharmacodynamic test of protein BD-4 (Example 4 protein) on convulsive epilepsy in mice caused by the convulsion agent Pilocarpine (PLO)
Model group: • Diazepam (Diazepam) 2 mg/kg group; • Protein BD-4, 50 mg/kg group, 200 mg/kg group. Method: Model Preparation and Administration:
The drug was administered once in the afternoon the day before modeling, PLO-225 mg/kg (modeling agent) was injected intraperitoneally 1 hour after the test drug was given to the stomach on the day of modeling. And positive drug can be administered once 20 minutes before modeling. Observe for 30 minutes after PLO injection.
Observation indicators: 1) Seizure situation: the time of seizures from grade II to grade IV; 2) the time to death.
Attack level: Refer to Racine grading standard: Level 0: No response; Grade I: manifested as twitching of facial muscles or the corners of the mouth; Level II: can nod; Level III: Twitching of one limb; Grade IV: rigidity or body twitching; Grade V: generalized epilepsy (generalized tonic seizures).
Count the number of grade IV seizures and deaths in each group of mice in the experiment; Level II, III and IV incubation period. […] Chi-square test was used for statistics of the number of cases. The mean value and standard error of the incubation period were calculated, and TTEST was used to compare the model group with other groups. P<0.05 was considered as a significant difference.

[3] = tested on: phenol red excretion in mice; assay: Expectorant test, phenol red excretion method in mice; format: in vivo, mouse; conditions: for Phenol red excretion: X ± SEM
Method: Experimental example 5 The pharmacodynamic test of protein BD-4 (Example 4 protein) on the expectorant of phenol red excretion method in mice.
• Solvent control group; • Mucosultan 30 mg/kg group; • Protein BD-4, 20 mg/kg group, 50 mg/kg group. Method: Model Preparation and Administration:
The animals were fasted and watered 16 hours before the experiment. Orally administered Mucosultan and different doses of protein BD-4 (administration volume 10 ml/kg) in groups, and the solvent control group was given the same volume of distilled water. One hour later, 2.5% phenol red solution was injected intraperitoneally, Kill the mouse by removing the neck after 30 minutes. Take the trachea from below the thyroid cartilage to the branch of the trachea. Put the trachea into 3 ml 5% NaHCO3 solution and let it stand for 3 hours. Take 1 ml of the supernatant and centrifuge at 3000 rpm for 5 minutes. Measure and record the absorbance at 546 nm. According to the standard curve of phenol red, the excretion of phenol red was calculated.
Record the time point of oral administration, the time point of intraperitoneal injection of 2.5% phenol red solution, and the time point of tracheal extraction respectively; The absorbance of each group of samples was measured by the microplate reader at 546 nm, Calculate the excretion of phenol red according to the standard curve of phenol red. Calculate the mean and standard error of the data in each group, use TTEST to compare the solvent control group with other groups, and P<0.05 is considered as a significant difference.

[4] = tested on: lipopolysaccharide (LPS) induced fever in rats; assay: Lipopolysaccharide (LPS) induced fever in SD rats; format: in vivo, rat; conditions: for Body temperature 2 hours after modeling: 2 h after LPS 20 μg/kg i.p.; for Body temperature 4 hours after modeling: 4 h after LPS 20 μg/kg i.p.; for Body temperature 6 hours after modeling: 6 h after LPS 20 μg/kg i.p.; for Body temperature 8 hours after modeling: 8 h after LPS 20 μg/kg i.p.
Method: Experimental example 2 The pharmacodynamic test of protein BD-4 (Example 4 protein) on lipopolysaccharide (LPS) induced fever in SD rats.
Experiment Grouping: • Model group: lipopolysaccharide fever model; • Positive control group: Aspirin 300 mg/kg group, • Protein BD-4, 10 mg/kg group, 50 mg/kg group. Method: the method of intraperitoneal injection of Lipopolysaccharide to create fever model in rats.
Preparation of experimental animals: After the experimental animals adapt to the experimental environment (temperature 22° C.±2° C., relative humidity 50%±2%) for 1 day. Pre-adaptation to measure rectal temperature at 8:00 and 15:00, Rats were fasted and water was taken freely 12 h before experiment. before the experiment, let the animal to empty its feces before measuring the rectal temperature. Apply petroleum jelly to the electronic thermometer probe before each temperature measurement. Insert the rat rectum 2 cm (can be marked at 2 cm to ensure that the depth of each insertion is consistent), and record the body temperature after the reading is stable.
Intraperitoneal injection of lipopolysaccharide to replicate rat fever model: The body temperature of the rats was measured before modeling. Qualified rats with a body temperature of 36.2-37.3° C. were selected and randomly divided into groups with 8 rats in each group. After oral administration of aspirin and different doses of protein BD-4, lipopolysaccharide (20 μg/kg, 2 ml/kg) was injected intraperitoneally immediately, and the normal control group was injected intraperitoneally with an equal volume of normal saline. the rats' body temperature was monitored after 2 hours for a total of 8 hours.
According to the body temperature measured at each time point on the day of the experiment, calculate the mean, standard deviation and standard error of the body temperature of each group of rats. The data of each group was compared with TTEST, and P<0.05 was considered as a significant difference.

B1: BD-4: recombinant keratin, amino acid sequence SEQ ID NO: 1, expressed in E. coli; the protein of Example 4 was tested (protein, listed as Bos taurus)
chain: MSYSCCLPNLSFRSSCSSRPCVPSSCCGTTLPGACNIPANVGSCNWFCEGSFNGSEKETMQFLNDRLASYLEKVRQLERDNAELESRILERSQQQEPLVCPNYQSYFRTIEELQQKILCSKSENARLVVQIDNAKLASDDFRTKYETEVSLRQLVEADLNGLRRILDELTLCKSDLEARVESLKEELICLKQNHEQEVNTLRSQLGDRLNVEVDAAPTVDLNRVLNETRAQYEALVETNRRDVEEWYIRQTEELNKQVVSSSEQLQSYQAEIIELRRTVNALEVELQAQHNLRDSLENTLTETEARYSCQLAQVQGLIGNVESQLAEIRSDLERQNQEYQVLLDVRARLECEINTYRGLLDSEDCKLPCNPCATTNACERPCISNPCVSRARCGPCNTFVH
Number of twists ([1]; 50 mg/kg oral): 16.9 ± 3.7 times
Writhing latency ([1]; 50 mg/kg oral): 315.2 ± 66.3 s
Number of writhing times vs model group ([1]; 50 mg/kg, P<0.05): significantly reduce the number of writhing times
Number of twists ([1]; 200 mg/kg oral): 25.1 ± 3.3 times
Writhing latency ([1]; 200 mg/kg oral): 220.1 ± 16.6 s
Epilepsy grade II incubation period, comparison with model group ([2]; 50 mg/kg): statistically different from the model group
Epilepsy grade III incubation period, comparison with model group ([2]; 50 mg/kg): statistically different from the model group
Grade IV seizure rate ([2]; 50 mg/kg gavage): 70%
mortality rate ([2]; 50 mg/kg gavage): 0
Number of deaths ([2]; 50 mg/kg gavage): 0
Number of Grade IV cases ([2]; 50 mg/kg gavage): 7
Level II onset incubation period ([2]; 50 mg/kg): 95 ± 3 s
Level III onset incubation period ([2]; 50 mg/kg): 162 ± 5 s
Level IV onset incubation period ([2]; 50 mg/kg): 974 ± 192 s
Epilepsy grade III incubation period, comparison with model group ([2]; 200 mg/kg): statistically different from the model group
Grade IV seizure rate ([2]; 200 mg/kg gavage): 90%
mortality rate ([2]; 200 mg/kg gavage): 10%
Number of deaths ([2]; 200 mg/kg gavage): 1
Number of Grade IV cases ([2]; 200 mg/kg gavage): 9
Level II onset incubation period ([2]; 200 mg/kg): 95 ± 6 s
Level III onset incubation period ([2]; 200 mg/kg): 184 ± 17 s
Level IV onset incubation period ([2]; 200 mg/kg): 765 ± 135 s
Phenol red excretion ([3]; 20 mg/kg oral): 0.898 ± 0.076 µg/mL
Phenol red excretion vs solvent control group ([3]; 20 mg/kg, P<0.05): significantly increased
Phenol red excretion ([3]; 50 mg/kg oral): 0.775 ± 0.101 µg/mL
Effect on body temperature of model rats ([4]; 10 mg/kg and 50 mg/kg, after modeling): tendency to lower the body temperature of model rats after modeling, but it is not statistically significant
Body temperature 2 hours after modeling ([4]; 10 mg/kg oral): 37.7 ± 0.1 °C
Body temperature 4 hours after modeling ([4]; 10 mg/kg oral): 37.8 ± 0.l
Body temperature 6 hours after modeling ([4]; 10 mg/kg oral): 37.8 ± 0.2 °C
Body temperature 8 hours after modeling ([4]; 10 mg/kg oral): 37.5 ± 0.2 °C
Body temperature 2 hours after modeling ([4]; 50 mg/kg oral): 37.6 ± 0.2 °C
Body temperature 4 hours after modeling ([4]; 50 mg/kg oral): 37.7 ± 0.2 °C
Body temperature 6 hours after modeling ([4]; 50 mg/kg oral): 37.6 ± 0.2 °C
Body temperature 8 hours after modeling ([4]; 50 mg/kg oral): 37.5 ± 0.1 °C
